Laboratory results as given in patent US9238802B2, “E. coli transformant, method for producing flavin-bound glucose dehydrogenase using the same, and mutant flavin-bound glucose dehydrogenases” (KIKKOMAN CORPORATION, priority 2010, dated 2016).

B1: GOD derived from Aspergillus niger: commercial glucose oxidase derived from Aspergillus niger (GOD, biozyme laboratories) (protein, UniProt P13006 17-605, looked up)
Glucose oxidase: LPHYIRSNGIEASLLTDPKDVSGRTVDYIIAGGGLTGLTTAARLTENPNISVLVIESGSYESDRGPIIEDLNAYGDIFGSSVDHAYETVELATNNQTALIRSGNGLGGSTLVNGGTWTRPHKAQVDSWETVFGNEGWNWDNVAAYSLQAERARAPNAKQIAAGHYFNASCHGVNGTVHAGPRDTGDDYSPIVKALMSAVEDRGVPTKKDFGCGDPHGVSMFPNTLHEDQVRSDAAREWLLPNYQRPNLQVLTGQYVGKVLLSQNGTTPRAVGVEFGTHKGNTHNVYAKHEVLLAAGSAVSPTILEYSGIGMKSILEPLGIDTVVDLPVGLNLQDQTTATVRSRITSAGAGQGQAAWFATFNETFGDYSEKAHELLNTKLEQWAEEAVARGGFHNTTALLIQYENYRDWIVNHNVAYSELFLDTAGVASFDVWDLLPFTRGYVHILDKDPYLHHFAYDPQYFLNELDLLGQAAATQLARNISNSGAMQTYFAGETIPGDNLAYDADLSAWTEYIPYHFRPNYHGVGTCSMMPKEMGGVVDNAARVYGVQGLRVIDGSIPPTQMSSHVMTVFYAMALKISDAILEDYASMQ
B2: NS2: GDH with a deletion to the 20th Ala and the 21st Gln substituted by Met (SEQ ID NO: 25) (protein)
chain: MQDTNSSSTDTYDYVIVGGGVAGLALASRISENKDVTVAVLESGPNANDRFVVYAPGMYGQAVGTDLCPLIPTTPQENMGNRSLTIATGRLLGGGSAINGLVWTRGGLKDYDAWEELGNPGWNGANLFKYFKKVENFTPPTPAQIEYGATYQKSAHGKKGPIDVSFTNYEFSQSASWNASLETLDFTALPDILNGTLAGYSTTPNILDPETVQRVDSYTGYIAPYTSRNNLNVLANHTVSRIQFAPKNGSEPLKATGVEWYPTGNKNQKQIIKARYEVIISSGAIGSPKLLEISGIGNKDIVSAAGVESLIDLPGVGSNMQDHVHAITVSTTNITGYTTNSVFVNETLAQEQREEYEANKTGIWATTPNNLGYPTPEQLFNGTEFVSGKEFADKIRNSTDEWANYYASTNASNVELLKKQYAIVASRYEENYLSPIEINFTPGYEGSGNVDLQNNKYQTVNHVLIAPLSRGYTHINSSDVEDHSVINPQYYSHPMDIDVHIASTKLAREIITASPGLGDINSGEIEPGMNITSEDDLRSWLSNNVRSDWHPVGTCAMLPKELGGVVSPALMVYGTSNLRVVDASIMPLEVSSHLMQPTYGIAEKAADIIKNFYKTQHKNQN
modifications: NS2
B3: NS4: GDH with a deletion to the 27th Ser and the 28st Ser substituted by Met (SEQ ID NO: 32) (protein)
chain: MTDTYDYVIVGGGVAGLALASRISENKDVTVAVLESGPNANDRFVVYAPGMYGQAVGTDLCPLIPTTPQENMGNRSLTIATGRLLGGGSAINGLVWTRGGLKDYDAWEELGNPGWNGANLFKYFKKVENFTPPTPAQIEYGATYQKSAHGKKGPIDVSFTNYEFSQSASWNASLETLDFTALPDILNGTLAGYSTTPNILDPETVQRVDSYTGYIAPYTSRNNLNVLANHTVSRIQFAPKNGSEPLKATGVEWYPTGNKNQKQIIKARYEVIISSGAIGSPKLLEISGIGNKDIVSAAGVESLIDLPGVGSNMQDHVHAITVSTTNITGYTTNSVFVNETLAQEQREEYEANKTGIWATTPNNLGYPTPEQLFNGTEFVSGKEFADKIRNSTDEWANYYASTNASNVELLKKQYAIVASRYEENYLSPIEINFTPGYEGSGNVDLQNNKYQTVNHVLIAPLSRGYTHINSSDVEDHSVINPQYYSHPMDIDVHIASTKLAREIITASPGLGDINSGEIEPGMNITSEDDLRSWLSNNVRSDWHPVGTCAMLPKELGGVVSPALMVYGTSNLRVVDASIMPLEVSSHLMQPTYGIAEKAADIIKNFYKTQHKNQN
modifications: NS4
B4: NS3: GDH with a deletion to the 27th Ser and Met added to the 28st Ser (SEQ ID NO: 30) (protein)
chain: MSTDTYDYVIVGGGVAGLALASRISENKDVTVAVLESGPNANDRFVVYAPGMYGQAVGTDLCPLIPTTPQENMGNRSLTIATGRLLGGGSAINGLVWTRGGLKDYDAWEELGNPGWNGANLFKYFKKVENFTPPTPAQIEYGATYQKSAHGKKGPIDVSFTNYEFSQSASWNASLETLDFTALPDILNGTLAGYSTTPNILDPETVQRVDSYTGYIAPYTSRNNLNVLANHTVSRIQFAPKNGSEPLKATGVEWYPTGNKNQKQIIKARYEVIISSGAIGSPKLLEISGIGNKDIVSAAGVESLIDLPGVGSNMQDHVHAITVSTTNITGYTTNSVFVNETLAQEQREEYEANKTGIWATTPNNLGYPTPEQLFNGTEFVSGKEFADKIRNSTDEWANYYASTNASNVELLKKQYAIVASRYEENYLSPIEINFTPGYEGSGNVDLQNNKYQTVNHVLIAPLSRGYTHINSSDVEDHSVINPQYYSHPMDIDVHIASTKLAREIITASPGLGDINSGEIEPGMNITSEDDLRSWLSNNVRSDWHPVGTCAMLPKELGGVVSPALMVYGTSNLRVVDASIMPLEVSSHLMQPTYGIAEKAADIIKNFYKTQHKNQN
modifications: NS3
B5: NS1: GDH with a deletion to the 20th Ala and Met added to the 21st Gln (SEQ ID NO: 23) (protein)
chain: MQQDTNSSSTDTYDYVIVGGGVAGLALASRISENKDVTVAVLESGPNANDRFVVYAPGMYGQAVGTDLCPLIPTTPQENMGNRSLTIATGRLLGGGSAINGLVWTRGGLKDYDAWEELGNPGWNGANLFKYFKKVENFTPPTPAQIEYGATYQKSAHGKKGPIDVSFTNYEFSQSASWNASLETLDFTALPDILNGTLAGYSTTPNILDPETVQRVDSYTGYIAPYTSRNNLNVLANHTVSRIQFAPKNGSEPLKATGVEWYPTGNKNQKQIIKARYEVIISSGAIGSPKLLEISGIGNKDIVSAAGVESLIDLPGVGSNMQDHVHAITVSTTNITGYTTNSVFVNETLAQEQREEYEANKTGIWATTPNNLGYPTPEQLFNGTEFVSGKEFADKIRNSTDEWANYYASTNASNVELLKKQYAIVASRYEENYLSPIEINFTPGYEGSGNVDLQNNKYQTVNHVLIAPLSRGYTHINSSDVEDHSVINPQYYSHPMDIDVHIASTKLAREIITASPGLGDINSGEIEPGMNITSEDDLRSWLSNNVRSDWHPVGTCAMLPKELGGVVSPALMVYGTSNLRVVDASIMPLEVSSHLMQPTYGIAEKAADIIKNFYKTQHKNQN
modifications: NS1

Columns and labels:
Format in all cases: biochemical
[1] = GDH activity of purified enzymes (DCIP/PMS assay); conditions: purified enzyme
Method: Specifically, the activities of the flavin-bound GDHs are measured according to the following procedures. To initiate a reaction, 1.79 mL of 100 mM phosphate buffer (pH7.0), 0.08 mL of 1.25 M D-glucose solution, and 0.01 mL of 20 mM DCIP solution are mixed, followed by incubation at 37° C. for 5 minutes, and, subsequently, 0.02 mL of 20 mM PMS solution and 0.1 mL of an enzyme sample solution are added. Absorbance is measured at the initiation of the reaction and over time to determine a decrease in the absorbance at 600 nm (ΔA600) per minute due to the progress of the enzyme reaction and calculate flavin-bound GDH activity according to the following formula. […]
Solutions were mixed according to the following procedures, followed by absorbance measurement to examine GDH activity in the crude enzyme solution. […] A decrease in the absorbance at 600 nm (ΔA600) per minute due to the progress of the enzyme reaction after the initiation of the reaction was determined to calculate GDH activity according to the following formula. […]
GDH activity was measured as described in Example 1. GOD activity was measured using 4-aminoantipyrine (4-AA) and N-ethyl-N-(2-hydroxy-3-sulfopropyl)-3-methylaniline (TOOS) as described below. […] An increase in the absorbance at 555 nm (ΔA555) per minute due to the progress of the enzyme reaction was determined to calculate GOD activity according to the following formula.

[2] = GOD activity (4-AA/TOOS/POD assay); conditions: 37° C., 131 mM D-glucose
Method: GDH activity was measured as described in Example 1. GOD activity was measured using 4-aminoantipyrine (4-AA) and N-ethyl-N-(2-hydroxy-3-sulfopropyl)-3-methylaniline (TOOS) as described below. To initiate a reaction, 30.0 mL of 100 mM phosphate buffer (pH 7.0), 6.0 mL of 833 mM D-glucose solution, 0.3 mL of 25 mM 4-AA solution, 0.3 mL of 40 mM TOOS solution, and 0.3 mL of 500 U/mL POD solution were mixed, of which 3.0 mL was transferred into a test tube and incubated at 37° C. for five minutes, and 0.1 mL of an enzyme sample solution was added. An increase in the absorbance at 555 nm (ΔA555) per minute due to the progress of the enzyme reaction was determined to calculate GOD activity according to the following formula.
The formula indicates 3.1 as the liquid volume (mL) of reaction reagent plus enzyme reagent, 32.8 as millimolar extinction coefficient (cm^2/μmol) under the activity assay conditions, 0.5 as the number of quinoneimine dye molecules generated when one H2O2 molecule is reduced, 0.1 as the liquid volume (mL) of an enzyme solution, 1.0 as the optical path length (cm) of a cell, ΔA555blank as an increase in the absorbance at 555 nm per minute when 10 mM acetate buffer, instead of an enzyme sample solution, is added to initiate a reaction, and df as a dilution factor.

[3] = Substrate specificity of GDHs produced by the E. coli transformant; conditions: according to Examples 3 and 5

Row | Molecule | GDH activity [1] [U/mL] | GOD activity [2] [U/mL] | substrate specificity (in words) [3]
1 | B1 | 3.50 | 9.38 | 
2 | B2 |  |  | almost comparable with that of the purified GDH obtained in Example 2
3 | B3 |  |  | almost comparable with that of the purified GDH obtained in Example 2
4 | B4 |  |  | almost comparable with that of the purified GDH obtained in Example 2
5 | B5 |  |  | almost comparable with that of the purified GDH obtained in Example 2
